# Experimental data taken from patent publication US20160039945A1 (Amgen, published 2016).
# Numbering of substitutions follows the chain as printed.
# B1: 131D12 (antibody, human IgG2, lambda, V domains shown)
# VH: QGQLVESGGGVVQPGRSLRLSCAASGFTFSSYGMHWVRQAPGKGLEWVAVIWHDGSNKYYADSVKGRFTISRDNSKNTLYLQMNSLRAEDTAVYYCARVVPDNWNQDYYGMDVWGQGTTVTVSS
# VL: SYELTQPPSVSVSPGQTASITCSGDKLGDKYACWFQQKPGQSPVLVIYQDSKRPFGIPDRFSGSKSGNTATLTISGTQAMEEADYYCQAWDSSTAVFGGGTKLTVLG
# notes: Fully human XenoMouse antibody; also called L3/H3; VL3/VH2
# B2: 101F7 (antibody, human IgG2, lambda, V domains shown)
# VH: QVQLVQSGAEVKKPGASVKVSCKASGYTFSSYGISWVRQAPGQGLEWMGWISAYNGNTNYAQKFQGRVTMTTDTSTSTAYMELRSLRSDDTAVYYCAREVRLAARPDHYYGMDVWGQGTTVTVSS
# VL: QSVLTQPPSVSAAPGQKVTISCSGSSSNIGINYVSWYQLLPGTAPKLLIYDNNKRPLGIPDRFSGSKSGTSATLGITGLQTGDETDYYCGTWDSSLSAWVFGGGTKLTVLG
# notes: Fully human XenoMouse antibody; also called L1/H1; VL1/VH1
# B3: 103B7 (antibody, human IgG2, lambda, V domains shown)
# VH: B2 VH
# VL: B2 VL with A72V, T85A, Y88F, S95N
# notes: Fully human XenoMouse antibody; also called L2/H2; VL2/VH1
# B4: 27B2 (antibody, human IgG2, lambda, V domains shown)
# VH: QVQLVESGGGVVQPGRSLRLSCAASGFTFSSYGMHWVRQAPGKGLEWVAAIWYDGSNKYYAESVKGRFTISRDNSKYTLYLQVNSLRAEDTAVYYCARRGGLAARPGGLDVWGQGTTVTVAS
# VL: SYELTQPPSVSVSPGQTISISCSGDKLGDKNACWYQQKPGQSPGLVIYQDSKRPLGIPARFSGSNSGNTATLTISGTQAMDEADYYCQAWDISTVVFGGGTKLTVLG
# notes: Fully human XenoMouse antibody; Tested as hybridoma supernatant, the VH ends '...TTVTV' without the final 'SS'; also called 27B2.6; L4/H4
# Target: T1, human proprotein convertase subtilisin kexin type 9 (self-cleaved, mature, secreted PCSK9) (human, UniProt Q8NBP7 31-692)
# T1 construct: Self-cleavage means the pro-domain and the catalytic/C-terminal part are separate, associated polypeptides; also called huPCSK9; wild-type PCSK9
# T1 sequence (Q8NBP7 other isoform, or with tags, fused parts or gaps): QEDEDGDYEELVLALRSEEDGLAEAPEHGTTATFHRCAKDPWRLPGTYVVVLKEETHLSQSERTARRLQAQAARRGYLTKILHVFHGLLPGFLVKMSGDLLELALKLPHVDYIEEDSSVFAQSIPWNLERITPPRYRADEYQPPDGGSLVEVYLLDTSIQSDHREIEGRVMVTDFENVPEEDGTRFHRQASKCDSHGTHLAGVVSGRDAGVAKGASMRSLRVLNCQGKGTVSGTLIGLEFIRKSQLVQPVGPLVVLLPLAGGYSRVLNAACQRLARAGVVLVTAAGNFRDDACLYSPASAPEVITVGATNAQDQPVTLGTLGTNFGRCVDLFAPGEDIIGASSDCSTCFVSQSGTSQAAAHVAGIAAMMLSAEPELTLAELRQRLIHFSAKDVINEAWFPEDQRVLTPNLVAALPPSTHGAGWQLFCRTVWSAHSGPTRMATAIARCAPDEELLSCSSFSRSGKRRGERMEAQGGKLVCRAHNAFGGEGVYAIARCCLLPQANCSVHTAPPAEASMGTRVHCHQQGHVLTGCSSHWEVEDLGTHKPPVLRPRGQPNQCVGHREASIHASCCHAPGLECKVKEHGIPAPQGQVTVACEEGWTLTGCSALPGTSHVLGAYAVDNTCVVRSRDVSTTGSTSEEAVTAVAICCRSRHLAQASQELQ
# Assay: solution equilibrium binding assay on BIAcore, pH 5.5
# Experimental: (§1) Binding of anti-PCSK9 antibodies to human and cynomolgus monkey PCSK9 was measured by solution equilibrium binding assay on BIAcore. Antibody was immobilized on the second flow cell of a CM5 chip using amine coupling (reagents provided by GE Healthcare, Piscataway, N.J.) with an approximate density of 6000 RU. The first flow cell was used as a background control. For assay at pH 7.4, 0.1 nM or 1.0 nM of PCSK9 were mixed with serial dilutions of antibody (ranging from 0.003 nM to 50 nM) in PBS plus 0.1 mg/mL BSA, 0.005% P20 and incubated at room temperature for 4 hours. For assay at pH 5.5, 0.1 nM or 1.0 nM of PCSK9 were mixed with serial dilutions of antibody (ranging from 0.003 nM to 50 nM) in 10 mM Sodium Citrate, pH 5.5, plus 150 mM NaCl, 0.1 mg/mL BSA, 0.005% P20 and incubated at room temperature for 4 hours. Binding of free PCSK9 in the mixed solutions was measured by injecting over the antibody coated chip surface. One hundred percent PCSK9 binding signal on the antibody surface was determined in the absence of antibody in the solution. A decreased PCSK9 binding response with increasing concentrations of antibody in solution indicated PCSK9 was binding to the antibody, preventing PCSK9 from binding to the immobilized antibody surface. Plotting the PCSK9 binding signal versus antibody concentration, the KD was obtained from nonlinear regression of the competition curves using an n-curve one-site homogeneous binding model provided in the KinExA Pro software.
row,Binder,Kd
1,B1,0.12 nM
2,B2,0.016 nM
3,B3,0.018 nM

# Target: T2, cynomolgus PCSK9 (cynomolgus monkey, UniProt A8T662 31-692 (Macaca nemestrina entry), limits assumed)
# T2 construct: also called cyPCSK9; cynomolgus monkey PCSK9
# T2 sequence (A8T662 31-692 K611R limits assumed): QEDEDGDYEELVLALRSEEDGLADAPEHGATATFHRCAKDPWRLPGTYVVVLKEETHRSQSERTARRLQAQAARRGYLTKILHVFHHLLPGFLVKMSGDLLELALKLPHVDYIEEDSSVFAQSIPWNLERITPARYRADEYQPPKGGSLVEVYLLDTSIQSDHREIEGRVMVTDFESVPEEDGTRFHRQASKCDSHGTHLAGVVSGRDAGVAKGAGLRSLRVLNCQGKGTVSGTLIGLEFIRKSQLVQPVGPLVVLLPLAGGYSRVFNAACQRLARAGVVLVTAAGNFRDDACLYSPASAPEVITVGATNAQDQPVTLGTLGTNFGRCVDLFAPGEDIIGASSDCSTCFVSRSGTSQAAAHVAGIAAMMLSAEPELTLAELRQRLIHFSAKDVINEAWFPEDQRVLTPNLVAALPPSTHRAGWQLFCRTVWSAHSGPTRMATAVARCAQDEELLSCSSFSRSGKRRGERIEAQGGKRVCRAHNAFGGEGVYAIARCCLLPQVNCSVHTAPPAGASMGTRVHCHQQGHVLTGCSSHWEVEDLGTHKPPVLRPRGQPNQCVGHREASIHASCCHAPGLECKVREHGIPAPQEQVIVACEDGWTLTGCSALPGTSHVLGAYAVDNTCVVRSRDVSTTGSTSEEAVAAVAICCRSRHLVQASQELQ
# Assay: as above
# Experimental: as §1
row,Binder,Kd
1,B1,3.1 nM
2,B2,0.008 nM
3,B3,0.022 nM

# Target: T1, human proprotein convertase subtilisin …
# Assay: solution equilibrium binding assay on BIAcore, pH 7.4
# Experimental: as §1
row,Binder,Kd
1,B1,0.067 nM
2,B2,0.006 nM
3,B3,0.007 nM

# Target: T2, cynomolgus PCSK9
# Assay: as above
# Experimental: as §1
row,Binder,Kd
1,B1,1.5 nM
2,B2,0.008 nM
3,B3,0.011 nM

# Target: T1, human proprotein convertase subtilisin …
# Assay: ELISA, hybridoma supernatant on neutravidin-captured biotinylated PCSK9
# Experimental: A primary screen for antibodies which bind to wild-type PCSK9 was performed. The primary screen was performed on two harvests. The primary screen comprised an ELISA assay and was performed using the following protocol:
# The plates were coated with neutravadin at a concentration of 4 μg/ml in 1×PBS/0.05% Azide, at a volume of 40 μl/well. The plates were incubated at 4° C. overnight. The plates were then washed using a Titertek plate washer (Titertek, Huntsville, Ala.). A 3-cycle wash was performed. The plates were blocked with 90 μl of 1×PBS/1% milk and incubated approximately 30 minutes at room temperature. The plates were then washed. Again, a 3-cycle wash was performed. The capture sample was biotinylated-PCSK9, and was added at 0.9 μg/ml in 1×PBS/1% milk/10 mM Ca²⁺ at a volume of 40 μl/well. The plates were then incubated for 1 hour at room temperature. Next, the plates were washed using the Titertek plate washer operated using a 3-cycle wash. 10 μl of supernatant was transferred into 40 μl of 1×PBS/1% milk/10 mM Ca²⁺ and incubated 1.5 hours at room temperature. Again the plates were washed using the Titertek plate washer operated using a 3-cycle wash. 40 μl/well of Goat anti-Human IgG Fc HRP at a concentration of 100 ng/ml (1:4000) in 1λ PBS/1% milk/10 mM Ca²⁺ was added to the plate and was incubated 1 hour at room temperature. The plates were washed once again, using a 3-cycle wash. Finally, 40 μl/well of One-step TMB (Neogen, Lexington, Ky.) was added to the plate and quenching with 40 μl/well of 1N hydrochloric acid was performed after 30 minutes at room temperature. OD's were read immediately at 450 nm using a Titertek plate reader. Positive binding was determined as 3 times the average of signal of the negative control which was hybridoma supernatant.
Binder,Early primary screen OD,Late primary screen OD
B4,4.9 OD (450 nm),4.2 OD (450 nm)
B1,3.3 OD (450 nm),3.56 OD (450 nm)
B2,3.45 OD (450 nm),3.91 OD (450 nm)
B3,4.03 OD (450 nm),3.46 OD (450 nm)

# Target: T1, human proprotein convertase subtilisin …
# Assay: competition ELISA, supernatant pre-incubated with b-PCSK9; competitor 26H5 coated on plate
# Experimental: (§2) Hybridoma supernatants were then assayed for direct binding competition. […] The next day each hybridoma supernatant was preincubated with 100 ng/ml b-PCSK9 at a 1:5 final dilution. These samples were then incubated for 2 hours at RT. The precoated antibody capture plates were then washed and the pre-incubated samples of hybridoma Antibody supernatants and B-PCSK9 were added to the plates and incubated for 1 hour at room temperature. Detection of bound b-PCSK9 was done with streptavidin HRP (Thermo P21126) at 500 ng/ml in 1×PBS/1% non fat skim milk. Incubated for 1 hour then added chromogenic substrate TMB, 3,3′,5,5′-tetramethylbenzidine, 40 ul/well incubated anywhere from 15 minutes to 60 minutes depending on OD then stopped with one molar hydrochloric acid. Optical density at 450 nm read on Multiskan Ascent reader. A % Inhibition was then calculated by comparing the amount of bound b-PCSK9 after preincubation with anti-PCSK9 hybridoma sups versus negative control wells using irrelevant hybridoma supernatants. % Inhibition=1−(OD of Ab supernatant/B-PCSK9/OD of Neg. control supernatant/B-PCSK9).
row,Binder,% inhibition of 26H5 Binding
1,B1,90%
2,B2,92%
3,B3,90%

# Target: T1, human proprotein convertase subtilisin …
# Assay: competition ELISA, supernatant pre-incubated with b-PCSK9; competitor 31H4 coated on plate
# Experimental: as §2
row,Binder,% inhibition of 31H4 Binding
1,B1,89%
2,B2,82%
3,B3,79%

# Target: T3, human D374Y PCSK9 mutant (human, UniProt Q8NBP7 31-692, limits assumed)
# T3 construct: It was biotinylated in the assay; also called biotinylated human D374Y PCSK9
# T3 sequence (Q8NBP7 other isoform, or with tags, fused parts or gaps D374Y D374Y limits assumed): as the sequence (Q8NBP7 other isoform, or with tags, fused parts or gaps) above, with D344Y counted along it
# Assay: receptor-ligand blocking ELISA: supernatant pre-incubated with biotinylated D374Y PCSK9, binding to captured LDLR
# Experimental: The plates were coated with goat anti-LDLR (R&D Cat #AF2148) at 2 μg/ml in 1λPBS/0.05% Azide at a volume of 40 μl/well. The plates were incubated at 4° C. overnight. The plates were then washed using a Titertek plate washer (Titertek, Huntsville, Ala.). A 3-cycle wash was performed. The plates were blocked with 90 μl of 1λ PBS/1% milk and incubated approximately 30 minutes at room temperature. The plates were then washed using the Titertek plate washer. A 3-cycle wash was performed. […] The plates were then incubated for 1 hour and 10 minutes at room temperature. […] The plates were then pre-incubated for about 1 hour and 30 minutes at room temperature. Next, the plates were washed using the Titertek plate washer operated using a 3-cycle wash. 50 μl/well of the pre-incubated mixture was transferred onto the LDLR coated ELISA plates and incubated for 1 hour at room temperature. To detect LDLR-bound b-PCSK9, 40 μl/well streptavidin HRP at 500 ng/ml in assay diluent was added to the plates. The plates were incubated for 1 hour at room temperature. The plates were again washed using a Titertek plate washer. A 3-cycle wash was performed. Finally, 40 μl/well of One-step TMB (Neogen, Lexington, Ky.) was added to the plate and was quenched with 40 μl/well of 1N hydrochloric acid after 30 minutes at room temperature. OD's were read immediately at 450 nm using a Titertek plate reader.
row,Binder,% R-L Inhibition
1,B4,93%
2,B1,92%
3,B2,94%
4,B3,93%
